From US20230181729A1 (published 2023) come the findings set out here.

First the molecules themselves.
B1: R16P1E8 (TCR, V domains shown)
Valpha: QKEVEQDPGPLSVPEGAIVSLNCTYSNSAFQYFMWYRQYSRKGPELLMYTYSSGNKEDGRFTAQVDKSSKYISLFIRDSQPSDSATYLCAMSEAAGNKLTFGGGTRVLVKP
Vbeta: EAGVAQSPRYKIIEKRQSVAFWCNPISGHATLYWYQQILGQGPKLLIQFQNNGVVDDSQLPKDRFSAERLKGVDSTLKIQPAKLEDSAVYLCASSYTNQGEAFFGQGTRLTVV
B2: R17P1A9 (TCR, V domains shown)
Valpha: QKEVEQNSGPLSVPEGAIASLNCTYSDRGSQSFFWYRQYSGKSPELIMSIYSNGDKEDGRFTAQLNKASQYVSLLIRDSQPSDSATYLCAVLNQAGTALIFGKGTTLSVSS
Vbeta: DSGVTQTPKHLITATGQRVTLRCSPRSGDLSVYWYQQSLDQGLQFLIQYYNGEERAKGNILERFSAQQFPDLHSELNLSSLELGDSALYFCASSAETGPWLGNEQFFGPGTRLTVL
B3: R17P1D7 (TCR, V domains shown)
Valpha: AQTVTQSQPEMSVQEAETVTLSCTYDTSESDYYLFWYKQPPSRQMILVIRQEAYKQQNATENRFSVNFQKAAKSFSLKISDSQLGDAAMYFCAYRWAQGGSEKLVFGKGTKLTVNP
Vbeta: EADIYQTPRYLVIGTGKKITLECSQTMGHDKMYWYQQDPGMELHLIHYSYGVNSTEKGDLSSESTVSRIRTEHFPLTLESARPSHTSQYLCATELWSSGGTGELFFGEGSRLTVL

The assay concerns the target T1, PRAME (PRAME-004) peptide on HLA-A*02:01 (human).
T1 peptide: SLLQHLIGL
Briefly: cytokine release.
Take B1: the binding result is on record as “recognises”.

In the case of B2, the binding result is reported as “recognises”.

Regarding B3, the binding result is given as “recognises”.
